Laboratory results as given in patent publication US20250263490A1 (VIB VZW, published 2025).
Numbering of substitutions follows the chain as printed. One block for each molecule: values may come before it.

How the values were obtained:
[1] = target: recombinant human domain 1-3His6 of the cation-independent mannose-6-phosphate receptor (human) (UniProt P11717); assay: BLI at pH 7.4, bivalent model
[2] = target: recombinant human domain 1-3His6 of the cation-independent mannose-6-phosphate receptor (human) (UniProt P11717); assay: BLI exp 1, dissoc pH 5, bivalent model
[3] = target: recombinant human domain 1-3His6 of the cation-independent mannose-6-phosphate receptor (human) (UniProt P11717); assay: BLI exp 1, dissoc pH 6, bivalent model
[4] = target: recombinant human domain 1-3His6 of the cation-independent mannose-6-phosphate receptor (human) (UniProt P11717); assay: BLI exp 1, dissoc pH 7, bivalent model
[5] = target: recombinant human domain 1-3His6 of the cation-independent mannose-6-phosphate receptor (human) (UniProt P11717); assay: BLI exp 2, dissoc pH 5, bivalent model
[6] = target: recombinant human domain 1-3His6 of the cation-independent mannose-6-phosphate receptor (human) (UniProt P11717); assay: BLI exp 2, dissoc pH 6, bivalent model
[7] = target: recombinant human domain 1-3His6 of the cation-independent mannose-6-phosphate receptor (human) (UniProt P11717); assay: BLI exp 2, dissoc pH 7, bivalent model
[8] = target: recombinant human domain 1-3His6 of the cation-independent mannose-6-phosphate receptor (human) (UniProt P11717); assay: BLI exp 1, dissoc pH 7.4, bivalent model
[9] = target: recombinant human domain 1-3His6 of the cation-independent mannose-6-phosphate receptor (human) (UniProt P11717); assay: BLI exp 2, dissoc pH 7.4, bivalent model
[10] = target: human cation-independent mannose-6-phosphate receptor, native, on cells (human) (UniProt P11717); assay: flow cytometry on HepG2 cells, titration of the anti-CI-M6PR 2G11 antibody (Abcam ab2733) [lower graph]
[11] = target: human cation-independent mannose-6-phosphate receptor, native, on cells (human) (UniProt P11717); assay: flow cytometry on HEK293T cells (sheet: HEK293 cell), titration of the anti-CI-M6PR 2G11 antibody (Abcam ab2733) [lower graph]
[12] = target: T1, recombinant human domain 1-3His6 of the cation-independent mannose-6-phosphate receptor (human, UniProt P11717 41-467); assay: in-tandem competitive BLI, biotinylated hDom1-3His6 on SA sensors, purified VHH
T1 construct: Biotinylated (NHS-PEG4-biotin) for BLI; Glycosylated; also called hDom1-3His6; hCI-M6PRD1-D3

[13] = target: T1, recombinant human domain 1-3His6 of the …; assay: in-tandem competitive BLI, biotinylated hDom1-3His6 on SA sensors, periplasmic extract of E. coli (concentration not given)
Description: FIGS. 50 & 51. […] In-tandem competitive BLI was performed on an Octet Red96 (FortéBio) instrument in kinetics buffer (1×PBS, 1 mg/ml bovine serum albumin, 0.02% Tween-20 and 0.05% sodium azide). Human CI-M6PR domain₁₋₃His₆ (0.5 mg/mL in 50 mM MES, 150 mM NaCl, pH 6.5) was incubated for 30 minutes at room temperature with EZ-Link™ NHS-PEG4-Biotin (1 mg, Thermo Fischer A39259) and NaHCO₃ (100 mM). Biotinylated human domain₁₋₃His₆ was purified using a Zeba spin desalting Column™ (7K MWCO, 2 mL, Thermo Fischer 89890) and immobilized on Streptavidin SA biosensors (Sartorius) to a signal of 0.5 nm. […] Between assays, biosensors were regenerated by three times 10 s exposure to regeneration buffer (10 mM glycine pH 3). Data were double reference-subtracted and aligned in Octet Data Analysis software v9.0 (FortéBio). Greyscale curves represent double reference-subtracted data.

[14] = target: T1, recombinant human domain 1-3His6 of the …; assay: BLI, global 1:1 fit, pH 7.4
Description: (§1) FIGS. 58 & 59. […] BLI was performed on an Octet Red96 (FortéBio) instrument in kinetics buffer (0.2 M Na₂HPO₄, 0.1 M Na⁺ citrate, 0.01% bovine serum albumin, 0.002% Tween-20). Biotinylated human domain₁₋₃His₆ was immobilized on Streptavidin SA biosensors (Sartorius) to a signal of 0.6 nm. […] Between assays, biosensors were regenerated by three times 10 s exposure to regeneration buffer (10 mM glycine pH 3). The degree of association and dissociation was measured in δ nm over time (s).
(§2) After loading, the tips were incubated with VHHs serially diluted in pH 7.4 kinetic buffer during the association phase and dissociation was performed at pH 7.4, pH 6.5, pH 6.0, pH 5.5 and pH 5.0. All biosensor tips were then regenerated before analysis of the subsequent VHH. Table 13 summarizes the kinetic parameters retrieved after processing and curve fitting of the BLI measurements. When both association and dissociation were performed at pH 7.4, a global fit was performed according to the 1:1 binding model of which the resulting affinity constants (KD), association (kₒₙ) and dissociation rate constants (koff) are shown. For measurements with association at pH 7.4 and dissociation at pH 6.5, 6.0, 5.5 and 5.0, the depicted dissociation rate constants are an average of the parameters determined by local curve fitting of the dissociation of 200, 100 and 50 nM VHH.

[15] = target: T1, recombinant human domain 1-3His6 of the …; assay: BLI, dissoc pH 5, mean of local fits
Description: as §1, §2

[16] = target: T1, recombinant human domain 1-3His6 of the …; assay: BLI, dissoc pH 6, mean of local fits
Description: as §1, §2

[17] = target: T1, recombinant human domain 1-3His6 of the …; assay: BLI, dissoc pH 5.5, mean of local fits
Description: as §1, §2

[18] = target: T1, recombinant human domain 1-3His6 of the …; assay: BLI, dissoc pH 6.5, mean of local fits
Description: as §1, §2

[19] = target: T1, recombinant human domain 1-3His6 of the …; assay: in-tandem competitive BLI, 400 nM
Description: (§3) FIGS. 50 & 51. In-tandem competitive BLI of purified anti-CI-M6PR VHHs. In-tandem competitive BLI was performed on an Octet Red96 (FortéBio) instrument in kinetics buffer (1×PBS, 1 mg/ml bovine serum albumin, 0.02% Tween-20 and 0.05% sodium azide). Human CI-M6PR domain₁₋₃His₆ (0.5 mg/mL in 50 mM MES, 150 mM NaCl, pH 6.5) was incubated for 30 minutes at room temperature with EZ-Link™ NHS-PEG4-Biotin (1 mg, Thermo Fischer A39259) and NaHCO₃ (100 mM). Biotinylated human domain₁₋₃His₆ was purified using a Zeba spin desalting Column™ (7K MWCO, 2 mL, Thermo Fischer 89890) and immobilized on Streptavidin SA biosensors (Sartorius) to a signal of 0.5 nm. […] Between assays, biosensors were regenerated by three times 10 s exposure to regeneration buffer (10 mM glycine pH 3). Data were double reference-subtracted and aligned in Octet Data Analysis software v9.0 (FortéBio). Greyscale curves represent double reference-subtracted data.
FIG. 55. […] In-tandem competitive BLI was performed as described in FIG. 50.

[20] = target: T1, recombinant human domain 1-3His6 of the …; assay: in-tandem competitive BLI, biotinylated hDom1-3His6 on SA sensors, purified VHH at 400 nM
Description: as §3

binding result [12]: no binding (tested: 400 nM)
B1: 1H74 (VHH)
VHH: QVQLQESGGGLVQPGGSLRLACAASGFTLEDYSIGWFRQAPGKEREGVSCISSSDHSTYYADSVKGRFTISRDNAQNTVYLHMNSLKPEDTAVYYCAGRYSSLARIETNWHDYNYWGQGTQVTVSS
notes: also called anti-CI-M6PR VHH 1H74

binding result [19]: binds
B5: humanized VHH8 variant VHH8 h5 (VHH)
VHH: DVQLVESGGGLVQAGGSLRLSCEASGRTFNTYNWGWFRQAPGKEREFVAAIRWSSSKTSYADSVKGRFTISRDNSKNTVYLQMNSLRPEDTAVYYCAASIVDFTTNPSHFGSWGQGTLVTVSS
notes: made in E. coli

binding result [20]: binds
B6: anti-CI-M6PR VHH 1H21 (VHH)
VHH: QVQLQESGGGLVQAGGSLRLSCVASGRTFSTLHMGWFHQAPGKERELVAAITRSGDTYYADFVKGRFTISRDNAKNTVYLQMISLKPEDTAVYYCAATGPGGWARLRAHEYDYWGQGTQVTVSS

binding result [13]: binds
B8: anti-CI-M6PR VHH 2H74 (VHH)
VHH: QVQLQESGGGLVQAGGSLRLTCAPSGRTYSTYWMAWFRQAPGKEREIVARINWSDGSTFYTESVKGRFTISGDNAKNTVYLQMTNLKPEDTAVYYCLARTVVSLDDYWGQGTQVTVSS

Continued, molecule first:

Molecule: anti-CI-M6PR antibody (clone 2G11)
Kd [1]: 2760 nM
koff [1]: 0.000592 s⁻¹
kon [1]: 215 M⁻¹ s⁻¹
Kd [2]: 1510 nM
koff [2]: 0.000363 s⁻¹
kon [2]: 241 M⁻¹ s⁻¹
Kd [3]: 2350 nM
koff [3]: 0.000479 s⁻¹
kon [3]: 204 M⁻¹ s⁻¹
Kd [4]: 4430 nM
koff [4]: 0.000712 s⁻¹
kon [4]: 161 M⁻¹ s⁻¹
koff [5]: 0.000389 s⁻¹
kon [5]: 35900 M⁻¹ s⁻¹
koff [6]: 0.000534 s⁻¹
kon [6]: 42600 M⁻¹ s⁻¹
koff [7]: 0.00103 s⁻¹
kon [7]: 31100 M⁻¹ s⁻¹
Kd [8]: 2760 nM
koff [8]: 0.000592 s⁻¹
kon [8]: 215 M⁻¹ s⁻¹
Kd [9]: 13.1 nM
koff [9]: 0.000794 s⁻¹
kon [9]: 60700 M⁻¹ s⁻¹
EC50 (read off the curve) [10]: 0.6 nM
EC50 (read off the curve) [11]: 0.2 nM

B2: anti-CI-M6PR VHH 2H79 (VHH)
VHH: QVQLQESGGGQVQAGDSLGLSCAASGGAFSTYHMGWFRQAPGKQRELVAAITRGGSSSTKYVDSVKGRFTISRDNAKNTMYLQMNSLQPDDTAVYYCAASPQGKWNALVGGTPDYWGQGTQVTVSS
binding result [13]: binds

B3: anti-CI-M6PR VHH 1H52 (VHH)
VHH: QVQLQESGGGLVQPGGSLRLSCTASGFTWDSYVIGWFRQAPGKGREGVSCLDVDDGSIYYHDSAKGRFSISRDNAKNTVYLQMNSLKPEDTAVYYCAAVNRASMRFRRCLQVLRYDYWGQGTQVTVSS
notes: made in E. coli WK6, His-tag purified
Kd [14]: 31 nM
koff [14]: 0.032 s⁻¹
kon [14]: 1e+06 M⁻¹ s⁻¹
koff [15]: 0.2 s⁻¹
koff [16]: 0.03 s⁻¹
koff [17]: 0.051 s⁻¹
koff [18]: 0.067 s⁻¹

B4: humanized VHH8 variant VHH8 h4 (VHH)
VHH: B5 VHH with A14P
notes: made in E. coli
binding result [19]: binds

B7: anti-CI-M6PR VHH 1H37 (VHH)
VHH: B8 VHH with A14P
binding result [20]: binds
